Common to all, as to test: EMSA
Data set [1] concerns the target p53 (82-393);IFI16 HIN-A (Homo sapiens;Homo sapiens, UniProt P04637;Q16666-2 82-393;192-393, |).
Data set [2] deals with IFI16 HIN-A (Homo sapiens, UniProt Q16666-2 192-393).
For data set [3], the target named is p53 (82-360);IFI16 HIN-B (Homo sapiens;Homo sapiens, UniProt P04637;Q16666-2 82-360;515-710, |).

IFI16 HIN-A, sequence (Q16666 192-393): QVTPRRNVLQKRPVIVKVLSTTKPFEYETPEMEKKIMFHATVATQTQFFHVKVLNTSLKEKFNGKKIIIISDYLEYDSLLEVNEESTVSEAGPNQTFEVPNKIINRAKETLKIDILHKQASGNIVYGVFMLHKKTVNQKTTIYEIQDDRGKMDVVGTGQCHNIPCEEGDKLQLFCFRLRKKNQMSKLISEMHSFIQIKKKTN

B1: p53 consensus 20-mer (dsDNA)
DNA 1: GGACATGCCCGGGCATGTCC
DNA 2: GGACATGCCCGGGCATGTCC
As to B1, the binding result was “binds” in data set [1], “no binding” in data set [2] and “binds” in data set [3].

The record behind these values is article PMC3760383.
